Here are results for two molecules from article doi:10.1101/2021.02.18.431786 (bioRxiv, 2021).

In assay [1] the target is T1, Human ABCG2 (breast cancer resistance protein), wild type, N-terminal Flag tag, reconstituted in nanodiscs (human), Q9UNQ0.
T1 chain: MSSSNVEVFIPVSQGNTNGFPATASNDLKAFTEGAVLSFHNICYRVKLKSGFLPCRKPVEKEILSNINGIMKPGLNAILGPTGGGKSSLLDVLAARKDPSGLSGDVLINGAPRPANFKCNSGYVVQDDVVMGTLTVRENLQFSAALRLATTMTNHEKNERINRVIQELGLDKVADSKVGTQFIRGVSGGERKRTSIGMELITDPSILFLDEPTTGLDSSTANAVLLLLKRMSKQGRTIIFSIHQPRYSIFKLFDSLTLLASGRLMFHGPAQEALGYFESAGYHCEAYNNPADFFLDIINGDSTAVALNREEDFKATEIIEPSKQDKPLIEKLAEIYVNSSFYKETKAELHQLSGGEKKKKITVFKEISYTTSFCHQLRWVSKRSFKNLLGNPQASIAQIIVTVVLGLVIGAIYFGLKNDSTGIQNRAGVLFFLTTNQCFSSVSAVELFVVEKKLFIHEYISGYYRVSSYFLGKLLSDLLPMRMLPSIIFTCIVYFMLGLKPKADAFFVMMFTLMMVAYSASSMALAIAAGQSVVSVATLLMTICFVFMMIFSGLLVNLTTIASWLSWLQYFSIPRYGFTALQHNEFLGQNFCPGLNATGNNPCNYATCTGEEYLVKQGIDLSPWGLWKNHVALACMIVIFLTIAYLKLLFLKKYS
Description: cryo-EM structure. The following applies: remark: other sources report otherwise.

Assay [2] concerns the target Human ABCG2 (breast cancer resistance protein), wild type, N-terminal Flag tag, reconstituted in nanodiscs (human, UniProt Q9UNQ0). The assay can be described thus: cryo-EM structure.

B1: Human ABCG2 (breast cancer resistance protein), wild type, N-terminal Flag tag, reconstituted in nanodiscs, Q9UNQ0 1-655 (natural protein)
chain: T1 chain
With B1, the stoichiometry N (as a rule, the number of molecules, sites or subunits per partner or assembly) in assay [1] was 2.

B2: Fab fragment of the ABCG2-specific monoclonal antibody 5D3 (Fab, V domains shown)
VH: QVQLQESGPGLVKPSQSLSLTCTVTGFSITSDYAWNWIRQFPGKKLEWMGYINFDGGTTYNPSLRGRISITRDTSKNQFFLQLRSVTPEDTATYYCATFYGAKGTLDYWGQGTSVTVSS
VL: DIVLTQSPSSFSVSLGDRVTISCKASGYILNRLAWYQQKPGNAPRLLISGATSLETGFPSRFSGTGSGKDYTLSISSLQTEDVGTYYCQQYWSTPWTFGGGTKLEIR
With B2, the binding result in assay [2] is reported as “binds”.
